Data set [1] can be described thus: ATPase assay (modified malachite green method). As to conditions: for microtubule concentration at peak stimulation of ATP turnover: non-hyperbolic, decreases at higher microtubule concentrations. It counts as biochemical. The procedure:
ATPase activity was measured by a modified malachite green method (Kodama et al. (1986) J. Biochem. 99: 1465-1472). ATPase reactions of 50-100 μl were carried out in a buffer previously used for measuring the ATPase activity of native katanin [20 mM K-HEPES pH 8.0, 25 mM potassium glutamate 2 mM MgCl2, 10% glycerol (v/v), 0.02% Triton X-100 (w/v), 1 mg/ml BSA] (McNally and Vale (1993) Cell, 75: 419-429), except that soybean trypsin inhibitor (SBTI) was replaced by BSA as a carrier protein because SBTI increased background phosphate contamination. An ATP regenerating system, consisting of 0.5-1.0 mM phosphoenol pyruvate and 2 units of pyruvate kinase, was included to minimize the inhibition by ADP observed previously for native katanin (McNally and Vale (1993) Cell, 75: 419-429). Microtubules were prepared from bovine brain tubulin (Hyman et al. (1990) Meth. Enzymol. 196: 303-319; and Williams and Lee (1982) Meth Enzymol. 85B: 376-385). After assembly, microtubules were sedimented (230,000×g; 10 min), resuspended in ATPase buffer lacking BSA, and the polymers were resuspended by repeated passage through a 27 gauge needle. Microtubule concentration was determined by measuring the absorbance at 275 nm in 6 M guanidine HCl by using a molecular mass of 110 kDa and an extinction coefficient of 1.03 ml mg^−1 cm^−1 (Hackney (1988) Proc. Natl. Acad Sci. USA, 85: 6314-6318). ATPase reactions were carried out at room temperature, and were initiated by addition of katanin.

Data set [2] has as its system Taxol-stabilized, rhodamine-labeled microtubules. Put plainly: Microscope-based microtubule severing assay. It counts as biochemical. To be noted: for time until microtubules were completely disassembled: 0.1 μM protein, 1 mM ATP; for microtubule severing (in words): p60, p60/p80 0.1 μM, p80 0.5 μM (5-fold higher). Here is the method:
FIGS. 5A, 5B, and 5C illustrate the activities of recombinant katanin subunits. […] Taxol-stabilized, rhodamine-labeled microtubules were adsorbed onto the surface of a microscope perfusion chamber, and then recombinant katanin subunits were introduced. The time elapsed after perfusing p60/p80 (0.1 μM), p60 (0.1 μM), or p80 (0.5 μM) is shown. The recombinant co-expressed p60/p80 and p60, but not p80, can sever and disassemble microtubules. Scale bar, 10 μm.
Microscope-based severing assays were performed using previously published procedures (McNally and Vale (1993) Cell, 75: 419-429), except that microtubules were immobilized by first perfusing flow cells with a bacterially expressed kinesin mutant that binds strongly to microtubules but is unable to hydrolyze ATP (K560, G234A mutant; R. Vale and E. Taylor, unpublished results). Assays were performed in 20 mM Hepes (pH 7.5), 2 mM MgCl2, 1 mM ATP with an oxygen scavenger system consisting of glucose oxidase (220 μg/ml), catalase (36 μg/ml), glucose (22.5 mM), and 2-mercaptoethanol (71.5 mM). Images were captured using a cooled, slow-scan CCD (Photometerics) and processed using Adobe Photoshop.

In data set [3] the test system is DAPI-labeled microtubules. Put plainly: DAPI fluorescence microtubule disassembly (severing) assay. It is filed as biochemical, bovine. As to conditions: 0.2 μM protein, 2 μM microtubules. The source says:
To better compare the microtubule severing activities of p60 and p60/p80, we developed a quantitative microtubule disassembly assay based upon a previous finding that DAPI fluorescence intensity is higher when this dye is bound to polymerized versus free tubulin (Heusele et al. (1987) Eur. J Biochem. 165: 613-620). […] This slower rate of microtubule disassembly is consistent with the previously described 2-fold decrease in ATPase activity of p60 compared with p60/p80.
ATPase activity was measured by a modified malachite green method (Kodama et al. (1986) J. Biochem. 99: 1465-1472). […] Microtubule concentration was determined by measuring the absorbance at 275 nm in 6 M guanidine HCl by using a molecular mass of 110 kDa and an extinction coefficient of 1.03 ml mg^−1 cm^−1 (Hackney (1988) Proc. Natl. Acad Sci. USA, 85: 6314-6318). […]
DAPI severing assays were performed using conditions where the change in fluorescence intensity was linear with the amount of tubulin polymer added (Heusele et al. (1987) Eur. J Biochem. 165: 613-620). […] The reaction volume was 80 μL, and fluorescence intensity was measured by exciting at 370 nm. and measuring the emission at 450 mn using a model 8100 fluorimeter (SLM Instruments) in photon counting mode.

B1: p60/p80: co-expressed recombinant katanin p60/p80 heterodimer complex from baculovirus-infected insect cells (protein)
chain 1: HHHHHHMSVDEICENTKMGREYALLGNYETSLVYYQGVLQQIQKLLTSVHEPQRKHQWQTIRQELSQEYEHVKNITKTLNGFKSEPAAPEPAPNHRAAPFSHHQHAAKPAAAEPARDPDVWPPPTPVDHRPSPPYQRAARKDPPRRSEPSKPANRAPGNDRGGRGPSDRRGDARSGGGGRGGARGSDKDKNRGGKSDKDKKAPSGEEGDEKKFDPAGYDKDLVENLERDIVQRNPNVHWADIAGLTEAKRLLEEAVVLPLWMPDYFKGIRRPWKGVLMVGPPGTGKTMLAKAVATECGTTFFNVSSASLTSKYHGESEKLVRLLFEMARFYAPSTIFIDEIDSICSKRGTGSEHEASRRVKSELLIQMDGVSGPSAGEESSKMVMVLAATNFPWDIDEALRRRLEKRIYIPLPEIDGREQLLRINLKEVPLADDIDLKSIAEKMDGYSGADITNVCRDASMMAMRRRIQGLRPEEIRHIPKEELNQPSTPADFLLALQKVSKSVGKEDLVKYMAWMEEFGSV
chain 2: HHHHHHMATKRAWKLQELVAHSSNVNCLALGPMSGRVMVTGGEDKKVNLWAVGKQNCIISLSGHTSPVDSVKFNSSEELVVAGSQSGTMKIYDLEPAKIVRTLTGHRNSIRCMDFHPFGEFVASGSTDTNVKLWDVRRKGCIYTYKGHSDQVNMIKFSPDGKWLVTASEDTTIKLWDLTMGKLFQEFKNHTGGVTGIEFHPNEFLLASGSSDRTVQFWDLETFQLVSSTSPGASAVRSISFHPDGSYLFCSSQDMLHAFGWEPIRCFDTFSVGWGKVADTVIASTQLIGASFNATNVSVYVADLSRMSTTGIAQEPQSQPSKTPSGGAEEVPSKPLTASGRKNFVRERPHTTSSKQRQPDVKSEPERQSPTQDEGVKDDDATDIKDPDSYAKIFSPKTRVDHSPERNAQPFPAPLDVPGAQEPEPFKHPPKPAAAAAVAPVSRAPAPSASDWQPAQANPAPNRVPAATKPVPAQEVAPSRKPDPISTIIPSDRNKPANLDMDAFLPPAHAQQAPRVNAPASRKQSDSERIEGLRKGHDSMCQVLSSRHRNLDVVRAIWTAGDAKTSVESVVNMKDQAILVDILNIMLLKKSLWNLDMCVVVLPRLKELLSSKYENYVHTSCACLKLILKNFTSLFNQNIKCPPSGIDITREERYNKCSKCYSYLIATRGYVEEKQHVSGKLGSSFRELHLLLDQLE
Turning to B1, the ATP turnover rate in data set [1] (basal, without microtubules) amounted to 0.3 ATP/sec/heterodimer. Also, the “stimulation of ATPase activity by microtubules” value in data set [1] (maximal stimulation) is listed as about 10 fold. Besides, the “microtubule concentration at peak stimulation of ATP turnover” value in data set [1] was about 2 μM tubulin. For the same molecule, in data set [2], the “time until microtubules were completely disassembled” value stood at 5 min and the “microtubule severing (in words)” value is listed as “severed microtubules”.

B2: Katanin: heterodimer of 60 kDa and 80 kDa subunits, microtubule-severing ATPase from sea urchin eggs (protein)
chain 1: HHHHHHMSVDEICENTKMGREYALLGNYETSLVYYQGVLQQIQKLLTSVHEPQRKHQWQTIRQELSQEYEHVKNITKTLNGFKSEPAAPEPAPNHRAAPFSHHQHAAKPAAAEPARDPDVWPPPTPVDHRPSPPYQRAARKDPPRRSEPSKPANRAPGNDRGGRGPSDRRGDARSGGGGRGGARGSDKDKNRGGKSDKDKKAPSGEEGDEKKFDPAGYDKDLVENLERDIVQRNPNVHWADIAGLTEAKRLLEEAVVLPLWMPDYFKGIRRPWKGVLMVGPPGTGKTMLAKAVATECGTTFFNVSSASLTSKYHGESEKLVRLLFEMARFYAPSTIFIDEIDSICSKRGTGSEHEASRRVKSELLIQMDGVSGPSAGEESSKMVMVLAATNFPWDIDEALRRRLEKRIYIPLPEIDGREQLLRINLKEVPLADDIDLKSIAEKMDGYSGADITNVCRDASMMAMRRRIQGLRPEEIRHIPKEELNQPSTPADFLLALQKVSKSVGKEDLVKYMAWMEEFGSV
chain 2: HHHHHHMATKRAWKLQELVAHSSNVNCLALGPMSGRVMVTGGEDKKVNLWAVGKQNCIISLSGHTSPVDSVKFNSSEELVVAGSQSGTMKIYDLEPAKIVRTLTGHRNSIRCMDFHPFGEFVASGSTDTNVKLWDVRRKGCIYTYKGHSDQVNMIKFSPDGKWLVTASEDTTIKLWDLTMGKLFQEFKNHTGGVTGIEFHPNEFLLASGSSDRTVQFWDLETFQLVSSTSPGASAVRSISFHPDGSYLFCSSQDMLHAFGWEPIRCFDTFSVGWGKVADTVIASTQLIGASFNATNVSVYVADLSRMSTTGIAQEPQSQPSKTPSGGAEEVPSKPLTASGRKNFVRERPHTTSSKQRQPDVKSEPERQSPTQDEGVKDDDATDIKDPDSYAKIFSPKTRVDHSPERNAQPFPAPLDVPGAQEPEPFKHPPKPAAAAAVAPVSRAPAPSASDWQPAQANPAPNRVPAATKPVPAQEVAPSRKPDPISTIIPSDRNKPANLDMDAFLPPAHAQQAPRVNAPASRKQSDSERIEGLRKGHDSMCQVLSSRHRNLDVVRAIWTAGDAKTSVESVVNMKDQAILVDILNIMLLKKSLWNLDMCVVVLPRLKELLSSKYENYVHTSCACLKLILKNFTSLFNQNIKCPPSGIDITREERYNKCSKCYSYLIATRGYVEEKQHVSGKLGSSFRELHLLLDQLE
Consider B2, for which, in data set [1] (basal), the “basal ATPase activity” value turned out to be 0.3 ATP/katanin/sec. In addition, in data set [1] (microtubule-stimulated), the “maximal microtubule-stimulated ATPase rate” value is on record as 3 ATP/katanin/sec.

B3: p60: S. purpuratus katanin p60 subunit, 516 a.a. AAA ATPase (SEQ ID NO:1), baculovirus-expressed with N-terminal His(6) tag (protein, listed as Strongylocentrotus purpuratus)
chain: MSVDEICENTKMGREYALLGNYETSLVYYQGVLQQIQKLLTSVHEPQRKHQWQTIRQELSQEYEHVKNITKTLNGFKSEPAAPEPAPNHRAAPFSHHQHAAKPAAAEPARDPDVWPPPTPVDHRPSPPYQRAARKDPPRRSEPSKPANRAPGNDRGGRGPSDRRGDARSGGGGRGGARGSDKDKNRGGKSDKDKKAPSGEEGDEKKFDPAGYDKDLVENLERDIVQRNPNVHWADIAGLTEAKRLLEEAVVLPLWMPDYFKGIRRPWKGVLMVGPPGTGKTMLAKAVATECGTTFFNVSSASLTSKYHGESEKLVRLLFEMARFYAPSTIFIDEIDSICSKRGTGSEHEASRRVKSELLIQMDGVSGPSAGEESSKMVMVLAATNFPWDIDEALRRRLEKRIYIPLPEIDGREQLLRINLKEVPLADDIDLKSIAEKMDGYSGADITNVCRDASMMAMRRRIQGLRPEEIRHIPKEELNQPSTPADFLLALQKVSKSVGKEDLVKYMAWMEEFGSV
modifications: N-terminal His6 tag; katanin p60 subunit
With B3, the “ATPase activity (in words)” value in data set [1] (baculovirus-expressed subunit alone) was “displayed a microtubule-stimulated ATPase activity”. Moreover, the “maximal basal and microtubule-stimulated ATPase rates relative to p60/p80 heterodimer” value in data set [1] (compared with p60/p80) amounted to 2 fold lower. In addition, the “microtubule concentration at peak stimulation of ATP turnover” value in data set [1] is about 2 μM tubulin. Also, in data set [2], the “time until microtubules were completely disassembled” value was determined as 5 min and the “microtubule severing (in words)” value is listed as “severed microtubules”. The “rate of microtubule disassembly compared with p60/p80” value in data set [3] is given as “half as active as p60/p80”.

The record behind these values is patent publication US6429304B1, “Nucleic acids encoding a katanin p60 subunit” (The Regents of the University of California, priority 1998, dated 2002).
